Assay results from PMC7430637.
pKd: −log10 of the molar value. One block for each substance: values may come before it.

Experiments:
[1] = molecular target: FAM-H3(1-15)K9me3 peptide (N-terminally fluorescein-labelled); assay: fluorescence polarisation; FAM-labelled H3(1-15) peptide, recombinant protein titrated; RT; as described (ref. 28)
[2] = molecular target: H3(1-15)K9me3-FAM peptide (C-terminally fluorescein-labelled); assay: as above
[3] = molecular target: FAM-H3(1–15)K9me3 peptide; assay: fluorescence polarisation; FAM-labelled H3(1–15) peptide, recombinant protein titrated; room temperature; as described in ref. 28
[4] = molecular target: H3(1–15)K9me3-FAM peptide; assay: as above
[5] = molecular target: H3(1–15)unmodified-FAM peptide; assay: as above
[6] = molecular target: H3(1-15)unmodified-FAM peptide (C-terminally fluorescein-labelled); assay: fluorescence polarisation; FAM-labelled H3(1-15) peptide, recombinant protein titrated; RT; as described (ref. 28)
[7] = molecular target: human UHRF1 (hUHRF1), full-length, wild type (human) (UniProt Q96T88); assay: MST; 50 nM His-tag-labelled (RED-tris-NTA) UHRF1 protein, H3 peptide titrated; 20 mM HEPES-NaOH pH 7.9, 150 mM NaCl, 0.05% Tween-20; room temperature; Monolith NT.115
human UHRF1 (hUHRF1), full-length, wild type (human), sequence (Q96T88 whole entry): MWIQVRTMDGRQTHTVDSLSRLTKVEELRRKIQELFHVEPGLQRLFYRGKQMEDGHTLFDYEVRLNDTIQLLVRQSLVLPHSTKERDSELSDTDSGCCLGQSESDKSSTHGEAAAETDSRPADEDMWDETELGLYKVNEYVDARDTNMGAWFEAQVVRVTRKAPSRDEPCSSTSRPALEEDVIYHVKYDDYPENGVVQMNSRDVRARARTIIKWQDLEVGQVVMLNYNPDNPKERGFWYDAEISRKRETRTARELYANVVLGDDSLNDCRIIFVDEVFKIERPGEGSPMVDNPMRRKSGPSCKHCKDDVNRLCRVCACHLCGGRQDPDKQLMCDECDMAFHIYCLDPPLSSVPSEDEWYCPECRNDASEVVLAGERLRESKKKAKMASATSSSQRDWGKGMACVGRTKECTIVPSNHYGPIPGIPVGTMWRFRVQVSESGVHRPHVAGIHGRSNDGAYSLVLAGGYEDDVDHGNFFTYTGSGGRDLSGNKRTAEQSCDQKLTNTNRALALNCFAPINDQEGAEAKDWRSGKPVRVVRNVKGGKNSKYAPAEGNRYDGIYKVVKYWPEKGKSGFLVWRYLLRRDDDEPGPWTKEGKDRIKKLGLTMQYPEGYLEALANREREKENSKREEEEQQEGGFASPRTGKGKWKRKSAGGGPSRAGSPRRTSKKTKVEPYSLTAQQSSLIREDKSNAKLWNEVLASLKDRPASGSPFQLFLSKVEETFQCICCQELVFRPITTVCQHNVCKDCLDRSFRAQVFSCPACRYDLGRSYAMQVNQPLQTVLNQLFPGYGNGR

[8] = molecular target: mUHRF1 V1 P-patch/R* (P293A/P294A/P295A/L297A/R298A), full-length (mouse) (UniProt Q8VDF2); assay: as above
mUHRF1 V1 P-patch/R* (P293A/P294A/P295A/L297A/R298A), full-length (mouse), sequence (Q8VDF2 whole entry P293A/P294A/P295A/L297A/R298A): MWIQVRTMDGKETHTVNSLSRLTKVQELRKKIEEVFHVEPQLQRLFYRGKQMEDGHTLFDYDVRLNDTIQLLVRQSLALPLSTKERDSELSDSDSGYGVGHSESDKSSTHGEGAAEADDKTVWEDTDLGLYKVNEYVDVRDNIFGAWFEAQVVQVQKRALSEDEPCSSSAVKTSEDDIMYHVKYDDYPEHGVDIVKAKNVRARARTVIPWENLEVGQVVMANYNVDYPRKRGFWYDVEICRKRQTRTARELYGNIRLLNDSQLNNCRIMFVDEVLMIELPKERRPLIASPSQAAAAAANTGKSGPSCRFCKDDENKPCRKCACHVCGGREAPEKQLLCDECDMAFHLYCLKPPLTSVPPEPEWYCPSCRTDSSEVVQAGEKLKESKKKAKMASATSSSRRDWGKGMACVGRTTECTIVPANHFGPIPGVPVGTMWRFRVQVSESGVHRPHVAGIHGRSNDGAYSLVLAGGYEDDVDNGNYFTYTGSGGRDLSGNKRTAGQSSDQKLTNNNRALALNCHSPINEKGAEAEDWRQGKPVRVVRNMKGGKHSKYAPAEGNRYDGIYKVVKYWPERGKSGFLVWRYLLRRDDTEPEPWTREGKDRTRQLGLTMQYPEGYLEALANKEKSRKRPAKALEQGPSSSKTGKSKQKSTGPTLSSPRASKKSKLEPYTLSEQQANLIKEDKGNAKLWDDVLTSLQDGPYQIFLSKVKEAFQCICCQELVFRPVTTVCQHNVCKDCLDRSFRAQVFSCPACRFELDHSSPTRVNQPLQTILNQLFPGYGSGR

[9] = molecular target: mUHRF1 V1 R-S* (R298A/N299A/T300A/G301A/K302A/S303A), full-length (mouse) (UniProt Q8VDF2); assay: as above
mUHRF1 V1 R-S* (R298A/N299A/T300A/G301A/K302A/S303A), full-length (mouse), sequence (Q8VDF2 whole entry R298A/N299A/T300A/G301A/K302A/S303A): as the sequence (Q8VDF2 whole entry P293A/P294A/P295A/L297A/R298A) above, with A293P, A294P, A295P, A297L, N299A, T300A, G301A, K302A, S303A counted along it

[10] = molecular target: mUHRF1 V1 R298* (R298A), full-length (mouse) (UniProt Q8VDF2); assay: as above
mUHRF1 V1 R298* (R298A), full-length (mouse), sequence (Q8VDF2 whole entry R298A): as the sequence (Q8VDF2 whole entry P293A/P294A/P295A/L297A/R298A) above, with A293P, A294P, A295P, A297L counted along it

[11] = molecular target: murine UHRF1 splicing variant 1 (mUHRF1 V1), full-length, wild type (mouse) (UniProt Q8VDF2); assay: as above
murine UHRF1 splicing variant 1 (mUHRF1 V1), full-length, wild type (mouse), sequence (Q8VDF2 whole entry, change not shown): as the sequence (Q8VDF2 whole entry P293A/P294A/P295A/L297A/R298A) above, with A293P, A294P, A295P, A297L, A298R counted along it

[12] = molecular target: murine UHRF1 splicing variant 2 (mUHRF1 V2), full-length, wild type (mouse); assay: as above
[13] = molecular target: recombinant hUHRF1 (human) (UniProt Q96T88); assay: MST; 50 nM 6× His-tagged protein labelled with RED-tris-NTA dye, peptide titrated; 20 mM HEPES–NaOH pH 7.9, 150 mM NaCl, 0.05% Tween-20; room temperature; also with 100-fold molar excess of 16:0 PI5P (Figure 3D)
recombinant hUHRF1 (human), sequence (Q96T88 whole entry): as the sequence (Q96T88 whole entry) above

[14] = molecular target: recombinant mUHRF1 V1 (mouse) (UniProt Q8VDF2); assay: as above
recombinant mUHRF1 V1 (mouse), sequence (Q8VDF2 whole entry): as the sequence (Q8VDF2 whole entry P293A/P294A/P295A/L297A/R298A) above, with A293P, A294P, A295P, A297L, A298R counted along it

pKd [1]: 5.20
pKd [2]: 5.31
Substance: isolated tandem tudor domain of human UHRF1 (hTTD) (from UniProt Q96T88 1-793) (domain or fragment)

pKd [1]: 5.47
pKd [2]: 5.57
Substance: isolated tandem tudor domain of murine UHRF1 (mTTD) (from UniProt Q8VDF2 1-782) (domain or fragment)

pKd [3]: 4.91
Substance: mTTD-PHD V2 (domain or fragment)

pKd [3]: < 3.52
pKd [4]: 5.31
pKd [5]: 4.84
Substance: mTTD-PHD V1 (domain or fragment)

pKd [1]: < 4.30
pKd [2]: 4.70
pKd [6]: 4.83
Substance: murine UHRF1 splicing variant 2 (mUHRF1 V2), full-length, wild type (natural protein)

pKd [2]: 5.59
pKd [6]: 5.62
Substance: hTTD-PHD module of human UHRF1, wild type (from UniProt Q96T88 1-793) (domain or fragment)

pKd [7]: 5.60
pKd [8]: 5.39
pKd [9]: 5.29
pKd [10]: 5.34
pKd [11]: 5.28
pKd [12]: 5.24
Substance: histone H3 N-terminal tail peptide, unmodified (MST)

fold weaker affinity against the H3K9me3 peptide [13]: 10 fold
fold reduction of binding against the H3K9me3 peptide [14]: 20 fold
Substance: H3R2me2sK9me3 peptide (titrated in MST)

pKd [7]: 5.82
pKd [8]: 5.20
pKd [9]: 5.21
pKd [10]: 5.17
pKd [11]: 5.85
pKd [12]: 5.35
Substance: histone H3 N-terminal tail peptide, K9 trimethylated (MST)

pKd [2]: 4.67
pKd [6]: 4.71
Substance: mTTD-PHD V1 TTD* (Y184A/Y187A, aromatic cage mutant) (from UniProt Q8VDF2-1 122-380) (domain or fragment)

pKd [2]: 4.84
pKd [6]: 4.98
Substance: mTTD-PHD V2 module (mUHRF1 V2 122-372) (domain or fragment)

pKd [7]: 4.80
pKd [11]: 4.55
pKd [12]: 4.85
Substance: histone H3 N-terminal tail peptide, R2 symmetrically dimethylated and K9 trimethylated (MST)

pKd [2]: 5.19
pKd [6]: 4.90
Substance: murine UHRF1 splicing variant 1 (mUHRF1 V1), full-length, wild type (from UniProt Q8VDF2 1-782) (natural protein)

pKd [2]: 5.11
pKd [6]: 4.82
Substance: human UHRF1 (hUHRF1), full-length, wild type (from UniProt Q96T88-1 1-793) (natural protein)
